B1: TPR t1 (parent)
chain: GACCAAUCUGCCCUCAGAGCUCGAGAACAUCUUCGGAUGCAGAGGAGGCAGGCUUCGGUGGCGCGAUAGCGCCAACGUCCUCAACCUCCAAUGCAUCCCACCACAUGAUGAUGCCUGAAGAGCCUUGGUUUUUUG

Variants of: B1
Test: polymerase ribozyme fitness, log enrichment relative to wild type (log ratio); higher = more active; in vitro selection for triplet polymerase activity
Outline: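 The heterodimeric triplet polymerase ribozyme's subunits were each mutagenized into PCR-built libraries and transcribed. Every library was selected once, in triplicate, by annealing with a biotinylated primer, the partner subunit and triplets, incubating frozen at −7 °C, gel-excising extended constructs, capturing on streptavidin beads and running RT-PCR. Input and output libraries were Illumina-sequenced, with genotypes kept only at ≥10 input reads and ≥1 read per output. Fitness, from inverse-variance-weighted replicate averages, is the base-2 logarithm of genotype enrichment over wild-type enrichment.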

Row | Variant | polymerase ribozyme fitness (log ratio)
1 | G36A G45U G61C | -3.57
2 | G36A A46U G57U C104U | -1.52
3 | G35U G61U C94U C124U | -4.83
4 | G36U C73U | -2.28
5 | G35A C70U C79G C115A U133A | -7.56
6 | G36A U55G U87A | -1.87
7 | G36C G51A | -3.99
8 | G36U A84C G110A | -2.43
9 | G36A C62A C102A | -5.26
10 | C34U U81C | -5.69
11 | C34U U81A | -5.06
12 | G36A A43U | -2.94
13 | C34U U109C C114A | -6.96
14 | G36U G42U C99A C114A | -7.29
15 | G36A A111G | -3.41
16 | G36A G57A | -1.38
17 | G36U G58U U59A A91C U112A | -2.22
18 | G36U G61A G93C G120C | -0.0777
19 | G35C U59C C124A | -3.15
20 | G36A G71U C76U U125A | -4.4
21 | G35U G113C | -7.04

Row | Variant | polymerase ribozyme fitness (log ratio)
22 | G35A C72U A75U G77C C97U G120A U125A | -6.29
23 | G36U C53G C56A | -1.45
24 | G36A A46C C104U U116A | -3.8
25 | G35A G113C | -5.03
26 | G36U C53G G63C C86U U87A C101A U129G | -5.54
27 | G35U C101A | -4.48
28 | G35U C101U | -6.26
29 | G36C C56U C89G G117U | -7.02
30 | G36C G42C G60C U130A | -3.88
31 | G36U C102U | -2.93
32 | G36U C73A C124U | 0.315
33 | G35A G120C C124A | -3.97
34 | G36A G63U C85G | -2.03
35 | G36C G44U A46C A50G G69U U78A C85A C124U | -4.01
36 | G36A G52C | -2.17
37 | G36C G63U A95C A111U | -6.67
38 | G35A U59C | -4.9
39 | G35U G63U C104G | -7.12
40 | G35A U116C | -3.83
41 | G36U G69A U81A | -3.96
42 | G35A U55C C115U | -5.27

Row | Variant | polymerase ribozyme fitness (log ratio)
43 | G36A G71A U87C C123G | 0.907
44 | G35A G63A | -3.91
45 | G35A G63C | -5.56
46 | G36A G61A G77A | -1.53
47 | C34U U59A C94U | -5.57
48 | G35C G69U C79G U130A | -4.92
49 | G36U G71A G120U | -1.04
50 | G36A G42A U54G | -3.13
51 | G35A C56U C72U | -4.68
52 | G35U C79U C114U U131C U134G | -5.19
53 | G35A C99U U112A | -3.32
54 | G36U A74G A83U C101G | -3.95
55 | G35U G39A C80G C97U C114A | -6.51
56 | G36U G77A G113U | -3.33
57 | G36U G63A | -1.69
58 | G36C A84U C85A C114G | -6
59 | G35U C40U | -4.76
60 | G36A G117C | -4.58
61 | G36A G117U | -4.6
62 | G35U C82U | -7.04
63 | G36C G42C G47C C53G C56U G61U C72U C86G U116C | -4.72

Row | Variant | polymerase ribozyme fitness (log ratio)
64 | G35C A95G | -4.43
65 | G36A G57U U129C | -1.31
66 | G36A G42U C53U U55G C86U G110U | -6.5
67 | G36U C64U | -1.21
68 | G35A C123G U129G | -2.61
69 | G36U G77C A91U | -4.63
70 | G35C U106C G117A | -5.76
71 | G35A G52U | -3.5
72 | G35U C80A | -6.8
73 | G36U G42C | -2.93
74 | G36U G42A | -3.47
75 | G36A C97A | -3.86
76 | G35C C76U G77U C123U | -6.87
77 | G35U U106C G122A | -6.34
78 | G36U G110C | -4.93
79 | G35A C56A | -4.2
80 | G36A G61U A103C A118U | -6.19
81 | G35A G120A | -2.08
82 | G35A G48C | -4.48
83 | G36U A90G | -0.944
84 | G36U G63A C85A | -3.57

Reference: the RNAGym collection of RNA variant scans (doi:10.1073/pnas.2313332121)
